Experimental data taken from PMC9169858 (Proceedings of the National Academy of Sciences of the …, 2022).

B1: NB2E3 (VHH)
VHH: QVQLQESGGGSVQAGGSLRLSCAVSGFIATSCALGWFRQAPGKEREGIATITTDGTTYYVDSVKGRFTISQDNAKNTVALQMNSLKPEDTAMYYCKLCCSGQYCAWGQGTQVTVSS
B2: NB1D10 (VHH)
VHH: QVQLQESGGGSVQAGGSLRLSCAVSGYSYCNYDLGWFRQAPGKEREGIATIDSDGNTYYVDSVKGRFTISQDNAKNTVALQMNSLKPEDTAMYYCKVGSIASSVPEVSCPPSAPFGYWGQGTQVTVSS

Molecular target: SARS-CoV-2 main protease (M^pro), pGEX4T-1 construct, GST removed by thrombin (SARS-CoV-2, Wuhan-Hu-1 (MN908947.3))
Test: BLI
Conditions: both partners purified

Row | Binder | binding result
1 | B1 | binds
2 | B2 | binds
